Test results taken from the supplement of paper PMC10567573.
± gives the standard deviation.

Assay: protein stability index of a GFP-peptide fusion (GPS, HEK-293T) (PSI 1-6); higher = more stable
Settings: c terminus: a fixed tail appended
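Note: 24-mer peptide tiles fused after GFP, lentivirally expressed, FACS-sorted into six equal bins by GFP/DsRed ratio, decoded by Illumina sequencing, PSI is the read-weighted mean bin number.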

Sequence | protein stability index (treatment: DMSO) | protein stability index (treatment: MLN4924 1 uM, 8 h)
QFRVIGPRHPIRALVGDEVELPCR [MOG] | 3.63 ± 0.31 | 3.64 ± 0.45
APSKKAAKDPGKGELPNHPKPAGG [FBF1] | 5.1 ± 0.43 | 5.53 ± 0.24
PEGNILRDRFKSFQRRNMIEPRER [NOP53] | 4.25 ± 0.31 | 4.29 ± 0.36
RREEEERRRIEEERLRLEQQKQQI [ACBD3] | 5.35 ± 0.19 | 5.05 ± 0.41
TDGRPQDSVAEVAAKARDTGILIF [MATN2] | 2.86 ± 0.23 | 3.12 ± 0.34
LLSSSEEECKDRERPMYGRDSAYQ [EMD] | 4.48 ± 0.23 | 4.51 ± 0.46
NAGTGLVINQADVRNNRSIIKQLK [PLD5] | 3.88 ± 0.27 | 3.84 ± 0.11
RRRQRSEKKKAHYRQSSFPHCSDL [KCNA4] | 3.66 ± 0.16 | 3.98 ± 0.19
ETEARYSSQLAQMQCLISNVEAQL [KRT36] | 3.26 ± 0.31 | 3.2 ± 0.34
ACDLQPCPTEPPDDSCQDQPGTNC [ADAMTSL2] | 5.49 ± 0.34 | 5.51 ± 0.39
GRNRLYHDGKNQPSKTYPAFLEPD [SPSB1] | 4.13 ± 0.12 | 4.37 ± 0.072
EELDKYWSQQIEESTTVVTTQSAE [KRT18] | 5.16 ± 0.27 | 5.23 ± 0.25
QQFRADPSTASLLLCPGGLDHKLN [TIAF1] | 3.48 ± 0.28 | 3.58 ± 0.34
KMKKLGQAMEEDLIVGLQGMDLNL [HDAC6] | 3.86 ± 0.24 | 3.5 ± 0.43
FSPTPPQQFQPAGTDQVCVLEWGA [FCHSD1] | 2.49 ± 0.27 | 2.86 ± 0.35
MLDSALRFQAMEETHLRHMKALLG [FCHO1] | 2.23 ± 0.37 | 2.33 ± 0.25
IYEFWENSSVWNSHLQTNYSKTFQ [NECAB1] | 2.28 ± 0.31 | 2.16 ± 0.26
PTPTSLEVSSPPDTTEEVDHKPKL [PDZK1] | 5.51 ± 0.18 | 5.54 ± 0.38
SRVILEIDNARLAADDFRLKYENE [KRT15] | 3.62 ± 0.4 | 3.7 ± 0.15
PGGLTLEEHSLEQVQSMVVGEVLK [SPDEF] | 3.34 ± 0.28 | 3.53 ± 0.38
AKHLIASMLSKNPEDRPSLDDIIR [PLK2] | 2.61 ± 0.38 | 2.79 ± 0.24
TMGAVVLSSTLLSFSTAIGRTCIT [MFSD9] | 2.98 ± 0.48 | 3.22 ± 0.29
MCRVDLRGHMPEWYTKSFGHLCAA [DLC1] | 2.23 ± 0.43 | 2.1 ± 0.53

Sequence | protein stability index (treatment: DMSO) | protein stability index (treatment: MLN4924 1 uM, 8 h)
CPPLPAGVSFHIDSAELEPGSQTA [FBXO34] | 5.03 ± 0.4 | 5.09 ± 0.2
KSIGSEPHEDHVFLVANFSQIETL [MATN2] | 2.92 ± 0.47 | 2.8 ± 0.25
LKATFSGFTKEQQRLGIPKDPRQW [ETS1] | 2.75 ± 0.25 | 2.82 ± 0.36
RQNLSKSWLDVQVSNTYVKQKTSA [TPD52L3] | 3.83 ± 0.28 | 3.8 ± 0.25
NQEYKMLLDIKTRLEQEIATYRSL [KRT13] | 2.58 ± 0.21 | 2.78 ± 0.19
RLKEMKLLRDQFVKALEDFEDLCD [FAM9B] | 2.27 ± 0.13 | 2.52 ± 0.38
RDRQQAPGLGQESKAPGSCDPGTD [TLE6] | 5.45 ± 0.12 | 5.46 ± 0.16
EEPSNKRVRPLARVTSLANLISPV [NET1] | 3.43 ± 0.47 | 3.44 ± 0.19
TIDDTISKFRRKDREDSPERCSDS [CLINT1] | 5.5 ± 0.3 | 5.44 ± 0.3
NPVQPIGPQTPKACDSKLTFDAIT [MMP1] | 4.21 ± 0.22 | 4.23 ± 0.22
IIPQVPLFNILAKFNGITEKEYKT [USP39] | 2.41 ± 0.28 | 2.49 ± 0.28
RPRRYVQPPEMIGPMRPEQFSDEV [GAGE1] | 3.86 ± 0.26 | 4.41 ± 0.32
FQTRQEMTSMSAELKMRAIQAEER [LRRC45] | 4.12 ± 0.29 | 4.48 ± 0.22
LLLCLKVDNHFNLLTTSPVFPHYI [TRIM43] | 3.03 ± 0.52 | 3.08 ± 0.64
RNLETQHKVLELTAENERLQKKVE [CEBPB] | 5.12 ± 0.57 | 5.49 ± 0.049
DSQEAQSPGHSSAGQEGEDTLRRR [TOR1AIP2] | 5.58 ± 0.26 | 5.45 ± 0.58
EESPNGSEGACEKEKQSRDFQGRI [RHOBTB1] | 5.35 ± 0.21 | 5.32 ± 0.46
VLGFLIENFKGLAIPYLEHIIHVW [VPS39] | 2.36 ± 0.46 | 2.5 ± 0.31
NDSDHQSSTSPLMEGTPTIKSKKK [VPS39] | 5.45 ± 0.26 | 5.57 ± 0.25
PIRNRAFYMEEGVPYCERDYEKMF [PDLIM7] | 3.3 ± 0.31 | 3.43 ± 0.34
HPGEHEVGEPEFHYIAGAHGNEVL [CPXM2] | 5.1 ± 0.29 | 4.98 ± 0.31
LSKDHQEVETEGPESADTGDKSES [TOR1AIP2] | 5.67 ± 0.18 | 5.59 ± 0.19
